Results on five substances are retold here after patent publication US20160289283A1.

Holding throughout (experiment): cell-based or functional assay
The target of experiment [1] is human Y4 receptor (human) (UniProt P50391).
Experiment [2] deals with human Y1 receptor (human) (UniProt P25929).
The target in experiment [3] is human Y2 receptor (human) (UniProt P49146).

Some results are limits rather than exact numbers.

Chain of human Y1 receptor (human) (P25929 whole entry): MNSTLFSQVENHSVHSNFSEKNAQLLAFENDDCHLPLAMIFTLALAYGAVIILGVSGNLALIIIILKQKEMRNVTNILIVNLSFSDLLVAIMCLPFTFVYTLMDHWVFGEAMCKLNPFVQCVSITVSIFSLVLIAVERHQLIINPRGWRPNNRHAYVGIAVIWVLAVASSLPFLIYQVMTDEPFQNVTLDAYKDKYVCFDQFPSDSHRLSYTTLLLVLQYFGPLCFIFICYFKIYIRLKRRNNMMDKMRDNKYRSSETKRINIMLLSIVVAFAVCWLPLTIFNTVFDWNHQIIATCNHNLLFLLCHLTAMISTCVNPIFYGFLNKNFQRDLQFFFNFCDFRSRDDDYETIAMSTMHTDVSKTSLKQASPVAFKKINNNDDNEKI
Chain of human Y4 receptor (human) (P50391 whole entry): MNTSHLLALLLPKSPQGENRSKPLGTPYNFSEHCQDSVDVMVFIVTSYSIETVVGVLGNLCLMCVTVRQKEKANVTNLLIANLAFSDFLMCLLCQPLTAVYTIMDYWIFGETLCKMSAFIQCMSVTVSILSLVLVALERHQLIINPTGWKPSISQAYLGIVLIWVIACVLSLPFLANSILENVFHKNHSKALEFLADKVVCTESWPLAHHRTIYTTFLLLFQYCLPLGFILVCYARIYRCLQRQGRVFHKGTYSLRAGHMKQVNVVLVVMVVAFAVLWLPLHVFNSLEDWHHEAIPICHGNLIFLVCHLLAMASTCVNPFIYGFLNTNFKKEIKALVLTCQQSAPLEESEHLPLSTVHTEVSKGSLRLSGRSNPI
Chain of human Y2 receptor (human) (P49146 whole entry): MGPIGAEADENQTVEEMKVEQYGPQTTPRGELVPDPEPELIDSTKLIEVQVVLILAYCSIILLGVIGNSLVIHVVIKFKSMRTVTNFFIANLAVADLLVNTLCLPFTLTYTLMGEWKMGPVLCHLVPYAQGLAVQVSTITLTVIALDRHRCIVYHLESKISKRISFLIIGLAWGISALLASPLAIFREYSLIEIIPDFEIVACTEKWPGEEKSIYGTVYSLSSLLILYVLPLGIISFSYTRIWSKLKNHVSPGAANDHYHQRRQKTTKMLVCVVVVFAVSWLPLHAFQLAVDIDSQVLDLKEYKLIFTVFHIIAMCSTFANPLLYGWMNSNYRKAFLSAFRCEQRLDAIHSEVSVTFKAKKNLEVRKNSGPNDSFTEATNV

With “4-N{alpha}-(3-Methylbutanoyl)-7-N{Epsilon}-[2-[2-[2-[[2-[2-[2-[[(4S)-4-carboxy-4-[[(4S)-4-carboxy-4-(16-sulfohexadecanoylamino)butanoyl]amino]butanoyl]amino]-ethoxy]ethoxy]acetyl]amino]ethoxy]ethoxy]acetyl]-[Lys7,Gln18,Trp30,NMeArg35]hPYY(4-36) (peptide)”, the EC50, Actone functional potency assay in experiment [1] is > 1000 nM.

Regarding “4-N{alpha}-(hexanoyl)-7-N{Epsilon}-2-[2-[2-[[2-[2-[2-[[(4S)-4-carboxy-4-(16-sulfohexadecanoylamino)butanoyl]amino]ethoxy]ethoxy]acetyl]amino]ethoxy]-ethoxy]acetyl]-[Arg4,Lys7,Gln18,Trp30,NMeArg35]hPYY(4-36) (peptide)”, in experiment [2], the EC50, Actone functional potency assay is > 1000 nM.

In the case of “7-N{Epsilon}-[2-[2-[2-[[2-[2-[2-[[2-[2-[2-[[2-[2-[2-[4-[16-(1H-tetrazol-5- yl)-hexadecanoylsulfamoyl]butanoylamino]ethoxy]ethoxy]acetyl]amino]ethoxy]-ethoxy]acetyl]amino]ethoxy]ethoxy]acetyl]amino]ethoxy]ethoxy]acetyl]-[Lys7,Gln18,Trp30,NMeArg35]hPYY(3-36) (peptide)”, the EC50, Actone functional potency assay in experiment [2] was > 1000 nM.

With “7-N{Epsilon}-[2-[2-[2-[[2-[2-[2-[[(4S)-4-carboxy-4-(16-sulfohexadecanoylamino)-butanoyl]amino]ethoxy]ethoxy]acetyl]amino]ethoxy]ethoxy]acetyl]-[Arg4,Lys7,Gln18,Trp30]hPYY(3-36) (peptide)”, the EC50, Actone functional potency assay was > 1000 nM in experiment [2], 1 nM in experiment [3] and > 1000 nM in experiment [1].

On to “7-N{Epsilon}-[2-[2-[2-[[2-[2-[2-[[(4S)-4-carboxy-4-(16-sulfohexadecanoylamino)-butanoyl]amino]ethoxy]ethoxy]acetyl]amino]ethoxy]ethoxy]acetyl]-[Lys7,Gln18,Trp30,NMeArg35]hPYY(3-36) (peptide)”, for which the EC50, Actone functional potency assay in experiment [2] is > 1000 nM.
